From US5445935 come the findings set out here.

For this data set, the target named is tryptophan repressor (TrpR) (UniProt P0A881 P0A881:2-108). Nature of the data set: FP; dimer-DNA Kd from linked monomer-dimer/DNA binding model (preferred fit; dimer-monomer Kd 3.5 nM); 0.2 nM DNA, 10 mM K phosphate, 0.1 mM EDTA, 10% glycerol, pH.

B1: fluorescein-labeled 25-mer trp operator duplex (dsDNA)
DNA 1: CTTGCACTAGTTAACTAGTCAGCAA
DNA 2: TTGCTGACTAGTTAACTAGTGCAAG
Usually Kd stands for the equilibrium constant for the complex coming apart. Low readings indicate a tighter complex, high ones a looser complex. Molecule B1 displayed a Kd of 0.23 nM.
